Measured values as given in paper PMC8165985.

Molecular target: T1, YycF (Staphylococcus aureus (ATCC29213?)) (UniProt Q9RDT5)
T1 sequence: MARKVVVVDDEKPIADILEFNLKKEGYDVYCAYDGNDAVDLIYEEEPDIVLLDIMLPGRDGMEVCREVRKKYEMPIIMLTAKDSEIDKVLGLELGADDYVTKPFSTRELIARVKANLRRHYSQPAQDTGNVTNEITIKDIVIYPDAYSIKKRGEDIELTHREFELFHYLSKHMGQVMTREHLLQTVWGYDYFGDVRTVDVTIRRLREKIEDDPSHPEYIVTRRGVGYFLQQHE
Assay: EMSA

Question: How did the binding turn out when “GCGCAATTTGGTGAAGTTTGATAGATGATACATTCTATTAAACTTCCTTTTTTTATGTCTTTTTTTACCTAATTGTTAAGAGGTTTTGCACTAATGGCACTTAATATAAGGAAGATAGCCGCATAACGAGCAGTATATATCAAATACATTTCAAAAAAAGCTGATTTCTATCAAATAATGAATAGTAATCAGCTTTTTCACATTGCCTAAGGACTTTATGCCCTAGGTTTATATATCAC (double strand) [sarA promoter region]” was run?
Answer: binds

Question: For “CTGAAAATTAATCACACTATGTTACAGGAAAATTAAGTTGCAATTACAAATATTTCCGTTTAATTATAACAACAATCTATTGCAAATTAAAATACTATCAATTACCATATGGCTTACAACCTAACTAACGAAAGGTAGGTAAAG (double strand) [icaA promoter region]”, which binding is on record?
Answer: binds
